Measured values as given in the supplement of paper PMC9112550, “Optimization of the antimicrobial peptide Bac7 by deep mutational scanning” (BMC Biology, 2022).

Tested on: Escherichia coli TOP10
Experiment: shrunken log2 fold change of peptide-encoding DNA abundance (4.5 h post-induction vs induction); higher = less antimicrobial activity (less host growth inhibition)
Conditions: time post-induction: 4.5 h; library: site-saturation at positions 5, 18, 19, 20
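Also: peptides expressed intracellularly from a pBAD plasmid library in pooled LB shake-flask culture, induced with 0.3% L-arabinose, DNA abundance read by NGS, three biological replicates, DESeq2 with apeglm shrinkage.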

| Sequence | shrunken log2 fold change |
| --- | --- |
| RRIRFRPPRLPRPRPRPMNYPRP | -0.582 |
| RRIRDRPPRLPRPRPRPSFEPRP | 0.495 |
| RRIRARPPRLPRPRPRPASFPRP | 0.387 |
| RRIRMRPPRLPRPRPRPILGPRP | -0.00884 |
| RRIRNRPPRLPRPRPRPNHNPRP | -0.858 |
| RRIRIRPPRLPRPRPRPCPGPRP | -0.372 |
| RRIRMRPPRLPRPRPRPGGVPRP | 0.952 |
| RRIRSRPPRLPRPRPRPGPRPRP | 0.659 |
| RRIRFRPPRLPRPRPRPYHRPRP | 0.045 |
| RRIRDRPPRLPRPRPRPLVWPRP | 0.831 |
| RRIRWRPPRLPRPRPRPFVWPRP | 0.128 |
| RRIRIRPPRLPRPRPRPEYEPRP | -0.0111 |
| RRIRIRPPRLPRPRPRPNKHPRP | -0.727 |
| RRIRWRPPRLPRPRPRPAMQPRP | 0.298 |
| RRIRMRPPRLPRPRPRPGWQPRP | -0.032 |
| RRIRNRPPRLPRPRPRPGYYPRP | -0.851 |
| RRIRPRPPRLPRPRPRPDLSPRP | 0.158 |
| RRIRMRPPRLPRPRPRPSVWPRP | 0.275 |
| RRIRFRPPRLPRPRPRPSITPRP | -0.262 |
| RRIRARPPRLPRPRPRPLDSPRP | 0.166 |
| RRIRYRPPRLPRPRPRPLHGPRP | -0.0615 |
| RRIRKRPPRLPRPRPRPLQNPRP | 0.551 |
| RRIRQRPPRLPRPRPRPCYAPRP | -0.251 |
| RRIRDRPPRLPRPRPRPAKEPRP | 0.0263 |
| RRIRDRPPRLPRPRPRPTECPRP | -0.0183 |

| Sequence | shrunken log2 fold change |
| --- | --- |
| RRIRARPPRLPRPRPRPRNTPRP | 0.146 |
| RRIRFRPPRLPRPRPRPKEKPRP | -0.0715 |
| RRIRFRPPRLPRPRPRPCHAPRP | -0.193 |
| RRIRTRPPRLPRPRPRPLQDPRP | 0.00698 |
| RRIRTRPPRLPRPRPRPLQLPRP | -0.167 |
| RRIRDRPPRLPRPRPRPSWAPRP | -0.102 |
| RRIRTRPPRLPRPRPRPNSGPRP | 0.00712 |
| RRIRARPPRLPRPRPRPQNGPRP | -0.106 |
| RRIRGRPPRLPRPRPRPSMVPRP | 0.512 |
| RRIRLRPPRLPRPRPRPMDEPRP | -0.119 |
| RRIRYRPPRLPRPRPRPWPMPRP | -0.0578 |
| RRIRIRPPRLPRPRPRPRNRPRP | -0.125 |
| RRIRDRPPRLPRPRPRPLYYPRP | 0.176 |
| RRIRMRPPRLPRPRPRPWHVPRP | -0.0444 |
| RRIRTRPPRLPRPRPRPHWTPRP | -0.0902 |
| RRIRCRPPRLPRPRPRPWAAPRP | -0.0941 |
| RRIRHRPPRLPRPRPRPYRYPRP | -0.177 |
| RRIRQRPPRLPRPRPRPKLDPRP | 0.168 |
| RRIRYRPPRLPRPRPRPIFQPRP | -0.568 |
| RRIRKRPPRLPRPRPRPFYPPRP | -0.0703 |
| RRIRVRPPRLPRPRPRPHSPPRP | -0.0205 |
| RRIRPRPPRLPRPRPRPGSEPRP | 0.0814 |
| RRIRVRPPRLPRPRPRPSNFPRP | -0.476 |
| RRIRRRPPRLPRPRPRPHRNPRP | -0.317 |
| RRIRCRPPRLPRPRPRPRMKPRP | 0.0252 |

| Sequence | shrunken log2 fold change |
| --- | --- |
| RRIRERPPRLPRPRPRPAMVPRP | 0.037 |
| RRIRNRPPRLPRPRPRPQNTPRP | -0.589 |
| RRIRNRPPRLPRPRPRPSGGPRP | 0.0638 |
| RRIRCRPPRLPRPRPRPYHNPRP | -1.12 |
| RRIRSRPPRLPRPRPRPYISPRP | -0.0172 |
| RRIRDRPPRLPRPRPRPRTVPRP | -0.142 |
| RRIRLRPPRLPRPRPRPASEPRP | 0.159 |
| RRIRRRPPRLPRPRPRPPWEPRP | 0.0894 |
| RRIRIRPPRLPRPRPRPQFPPRP | -0.0492 |
| RRIRLRPPRLPRPRPRPFIKPRP | -0.66 |
| RRIRPRPPRLPRPRPRPAPCPRP | 0.236 |
| RRIRMRPPRLPRPRPRPKFRPRP | 0.169 |
| RRIRWRPPRLPRPRPRPPWFPRP | 0.218 |
| RRIRCRPPRLPRPRPRPHFDPRP | 0.0458 |
| RRIRVRPPRLPRPRPRPPNAPRP | 0.295 |
| RRIRARPPRLPRPRPRPVLRPRP | 0.228 |
| RRIRSRPPRLPRPRPRPNNAPRP | -0.38 |
| RRIRQRPPRLPRPRPRPRPWPRP | 0.858 |
| RRIRCRPPRLPRPRPRPYFGPRP | -0.0436 |
| RRIRSRPPRLPRPRPRPWYCPRP | 0.017 |
| RRIRFRPPRLPRPRPRPFQSPRP | -0.00947 |
| RRIRIRPPRLPRPRPRPFMCPRP | -0.103 |
| RRIRARPPRLPRPRPRPNETPRP | 0.0696 |
| RRIRMRPPRLPRPRPRPFGHPRP | -0.0287 |
| RRIRDRPPRLPRPRPRPLKKPRP | 0.31 |

| Sequence | shrunken log2 fold change |
| --- | --- |
| RRIRIRPPRLPRPRPRPFWHPRP | -0.275 |
| RRIRHRPPRLPRPRPRPICSPRP | 0.0153 |
| RRIRRRPPRLPRPRPRPHVTPRP | -0.154 |
| RRIRARPPRLPRPRPRPRYQPRP | -0.274 |
| RRIRCRPPRLPRPRPRPREGPRP | 1.09 |
| RRIRKRPPRLPRPRPRPATFPRP | -0.0215 |
| RRIRWRPPRLPRPRPRPTCLPRP | 0.324 |
| RRIRCRPPRLPRPRPRPISAPRP | -0.142 |
| RRIRSRPPRLPRPRPRPMVMPRP | 0.0113 |
| RRIRGRPPRLPRPRPRPGQVPRP | 0.11 |
| RRIRARPPRLPRPRPRPPEYPRP | 0.386 |
| RRIRPRPPRLPRPRPRPWCQPRP | 0.0224 |
| RRIRQRPPRLPRPRPRPMFGPRP | 0.0107 |
| RRIRPRPPRLPRPRPRPMAIPRP | -0.0296 |
| RRIRYRPPRLPRPRPRPRLNPRP | -0.313 |
| RRIRFRPPRLPRPRPRPPCNPRP | -0.284 |
| RRIRNRPPRLPRPRPRPTMVPRP | -0.0433 |
| RRIRCRPPRLPRPRPRPNHHPRP | -0.604 |
| RRIRGRPPRLPRPRPRPETQPRP | 2.49 |
| RRIRTRPPRLPRPRPRPQEIPRP | -0.187 |
| RRIRERPPRLPRPRPRPYGWPRP | -0.135 |
| RRIRFRPPRLPRPRPRPALCPRP | -0.088 |
| RRIRPRPPRLPRPRPRPSKSPRP | -0.123 |
| RRIRDRPPRLPRPRPRPTTDPRP | 0.547 |
| RRIRTRPPRLPRPRPRPIPWPRP | -0.0529 |

| Sequence | shrunken log2 fold change |
| --- | --- |
| RRIRIRPPRLPRPRPRPVVDPRP | -0.105 |
| RRIRHRPPRLPRPRPRPAFMPRP | -0.193 |
| RRIRSRPPRLPRPRPRPNAMPRP | -0.0346 |
| RRIRDRPPRLPRPRPRPWWTPRP | -0.327 |
| RRIRARPPRLPRPRPRPFWWPRP | 0.923 |
| RRIRERPPRLPRPRPRPQKVPRP | -0.102 |
| RRIRERPPRLPRPRPRPVHHPRP | -0.954 |
| RRIRWRPPRLPRPRPRPGLGPRP | 0.83 |
| RRIRCRPPRLPRPRPRPGSRPRP | 0.235 |
| RRIRARPPRLPRPRPRPEYIPRP | 0.0332 |
| RRIRTRPPRLPRPRPRPECTPRP | 0.0491 |
| RRIRERPPRLPRPRPRPTVWPRP | 0.217 |
| RRIRWRPPRLPRPRPRPEYIPRP | -0.0519 |
| RRIRARPPRLPRPRPRPPLWPRP | 1.17 |
| RRIRWRPPRLPRPRPRPVMHPRP | -0.119 |
| RRIRSRPPRLPRPRPRPWWVPRP | -0.2 |
| RRIRWRPPRLPRPRPRPVSEPRP | 0.0771 |
| RRIRQRPPRLPRPRPRPEKYPRP | -0.304 |
| RRIRKRPPRLPRPRPRPRRQPRP | 0.333 |
| RRIRTRPPRLPRPRPRPCERPRP | -0.018 |
| RRIRHRPPRLPRPRPRPTWCPRP | 0.582 |
| RRIRFRPPRLPRPRPRPLPNPRP | 0.184 |
| RRIRNRPPRLPRPRPRPQNNPRP | -0.734 |
| RRIRRRPPRLPRPRPRPSIKPRP | 2.9 |
| RRIRRRPPRLPRPRPRPEKYPRP | 0.135 |

| Sequence | shrunken log2 fold change |
| --- | --- |
| RRIRQRPPRLPRPRPRPIVIPRP | 0.0668 |
| RRIRRRPPRLPRPRPRPHCLPRP | -0.192 |
| RRIRLRPPRLPRPRPRPCSEPRP | 0.0739 |
| RRIRHRPPRLPRPRPRPFCAPRP | 0.076 |
| RRIRERPPRLPRPRPRPKVSPRP | -0.205 |
| RRIRGRPPRLPRPRPRPYWPPRP | 0.0961 |
| RRIRMRPPRLPRPRPRPQKCPRP | -0.0433 |
| RRIRMRPPRLPRPRPRPNITPRP | 0.314 |
| RRIRVRPPRLPRPRPRPDLQPRP | 0.00798 |
| RRIRDRPPRLPRPRPRPHVEPRP | -0.109 |
| RRIRCRPPRLPRPRPRPNSLPRP | -0.0801 |
| RRIRPRPPRLPRPRPRPKHDPRP | -0.0113 |
| RRIRKRPPRLPRPRPRPGESPRP | 0.0841 |
| RRIRDRPPRLPRPRPRPGAGPRP | 0.914 |
| RRIRARPPRLPRPRPRPCSKPRP | 0.0365 |
| RRIRLRPPRLPRPRPRPIVQPRP | -1.06 |
| RRIRDRPPRLPRPRPRPPIHPRP | -0.487 |
| RRIRFRPPRLPRPRPRPKPTPRP | 0.879 |
| RRIRDRPPRLPRPRPRPCYIPRP | 0.0176 |
| RRIRARPPRLPRPRPRPPKLPRP | 0.683 |
| RRIRGRPPRLPRPRPRPPEGPRP | 1.15 |
| RRIRHRPPRLPRPRPRPVPCPRP | 0.337 |
| RRIRERPPRLPRPRPRPYLAPRP | -0.225 |
| RRIRARPPRLPRPRPRPATFPRP | 0.129 |
| RRIRERPPRLPRPRPRPSDEPRP | -0.228 |
